Laboratory results from patent US20260167699A1 (Chugai, published 2026).

B1: GpH7-A5/GpH7-B3 variant I332_13S/GpL16-k0 (antibody, human IgG1, kappa)
heavy 1: not shown
heavy 2: not shown
light: DIVMTQSPLSLPVTPGEPASISCQASESLVHSNRNTYLHWYLQKPGQSPQLLIYKVSNRFSGVPDRFSGSGSGTDFTLKISRVEAEDVGVYYCSQNTHVPPTFGQGTKVEIERTVAAPSVFIFPPSDEQLKSGTASVVCLLNNFYPREAKVQWKVDNALQSGNSQESVTEQDSKDSTYSLSSTLTLSKADYEKHKVYACEVTHQGLSSPVTKSFNRGEC
notes: copies: 1 + 1 + 2
B2: GpH7-A5/GpH7-B3 variant I336_13S/GpL16-k0 (antibody, human IgG1, kappa)
heavy 1: not shown
heavy 2: not shown
light: B1 light
notes: copies: 1 + 1 + 2
B3: GpH7-A5/GpH7-B3 variant K334_10E/GpL16-k0 (antibody, human IgG1, kappa)
heavy 1: not shown
heavy 2: not shown
light: B1 light
notes: copies: 1 + 1 + 2
B4: GpH7-A5/GpH7-B3 variant K334_14T/GpL16-k0 (antibody, human IgG1, kappa)
heavy 1: not shown
heavy 2: not shown
light: B1 light
notes: copies: 1 + 1 + 2
B5: GpH7-A5/GpH7-B3 variant I336_10E/GpL16-k0 (antibody, human IgG1, kappa)
heavy 1: not shown
heavy 2: not shown
light: B1 light
notes: copies: 1 + 1 + 2
B6: GpH7-A5/GpH7-B3 variant K334_01G/GpL16-k0 (antibody, human IgG1, kappa)
heavy 1: not shown
heavy 2: not shown
light: B1 light
notes: copies: 1 + 1 + 2
B7: GpH7-A5/GpH7-B3 variant I336_14T/GpL16-k0 (antibody, human IgG1, kappa)
heavy 1: not shown
heavy 2: not shown
light: B1 light
notes: copies: 1 + 1 + 2
B8: GpH7-A5/GpH7-B3 variant K326_07I/GpL16-k0 (antibody, human IgG1, kappa)
heavy 1: not shown
heavy 2: not shown
light: B1 light
notes: copies: 1 + 1 + 2
B9: GpH7-A5/GpH7-B3 variant K326_16H/GpL16-k0 (antibody, human IgG1, kappa)
heavy 1: not shown
heavy 2: not shown
light: B1 light
notes: copies: 1 + 1 + 2
B10: GpH7-A5/GpH7-B3 variant K334_18N/GpL16-k0 (antibody, human IgG1, kappa)
heavy 1: not shown
heavy 2: not shown
light: B1 light
notes: copies: 1 + 1 + 2
B11: GpH7-A5/GpH7-B3 variant I332_20W/GpL16-k0 (antibody, human IgG1, kappa)
heavy 1: not shown
heavy 2: not shown
light: B1 light
notes: copies: 1 + 1 + 2
B12: GpH7-A5/GpH7-B3 variant K334_20W/GpL16-k0 (antibody, human IgG1, kappa)
heavy 1: not shown
heavy 2: not shown
light: B1 light
notes: copies: 1 + 1 + 2
B13: GpH7-A5/GpH7-B3 variant I336_12R/GpL16-k0 (antibody, human IgG1, kappa)
heavy 1: not shown
heavy 2: not shown
light: B1 light
notes: copies: 1 + 1 + 2
B14: GpH7-A5/GpH7-B3 variant I336_06M/GpL16-k0 (antibody, human IgG1, kappa)
heavy 1: not shown
heavy 2: not shown
light: B1 light
notes: printed 1336_06M, read as I336_06M; also called 1336_06M; copies: 1 + 1 + 2
B15: GpH7-A5/GpH7-B3 variant K326_18N/GpL16-k0 (antibody, human IgG1, kappa)
heavy 1: not shown
heavy 2: not shown
light: B1 light
notes: copies: 1 + 1 + 2
B16: GpH7-A5/GpH7-B3 variant K326_13S/GpL16-k0 (antibody, human IgG1, kappa)
heavy 1: not shown
heavy 2: not shown
light: B1 light
notes: copies: 1 + 1 + 2
B17: GpH7-A5/GpH7-B3 variant K326_12R/GpL16-k0 (antibody, human IgG1, kappa)
heavy 1: not shown
heavy 2: not shown
light: B1 light
notes: copies: 1 + 1 + 2
B18: GpH7-A5/GpH7-B3 variant K326_20W/GpL16-k0 (antibody, human IgG1, kappa)
heavy 1: not shown
heavy 2: not shown
light: B1 light
notes: copies: 1 + 1 + 2
B19: GpH7-A5/GpH7-B3 variant K334_15Y/GpL16-k0 (antibody, human IgG1, kappa)
heavy 1: not shown
heavy 2: not shown
light: B1 light
notes: copies: 1 + 1 + 2
B20: GpH7-A5/GpH7-B3 variant K326_04F/GpL16-k0 (antibody, human IgG1, kappa)
heavy 1: not shown
heavy 2: not shown
light: B1 light
notes: copies: 1 + 1 + 2
B21: GpH7-A5/GpH7-B3 variant I336_11K/GpL16-k0 (antibody, human IgG1, kappa)
heavy 1: not shown
heavy 2: not shown
light: B1 light
notes: copies: 1 + 1 + 2
B22: GpH7-A5/GpH7-B3 variant I336_19Q/GpL16-k0 (antibody, human IgG1, kappa)
heavy 1: not shown
heavy 2: not shown
light: B1 light
notes: copies: 1 + 1 + 2
B23: GpH7-A5/GpH7-B3 variant K334_13S/GpL16-k0 (antibody, human IgG1, kappa)
heavy 1: not shown
heavy 2: not shown
light: B1 light
notes: copies: 1 + 1 + 2
B24: GpH7-A5/GpH7-B3 variant K334_16H/GpL16-k0 (antibody, human IgG1, kappa)
heavy 1: not shown
heavy 2: not shown
light: B1 light
notes: copies: 1 + 1 + 2
B25: GpH7-A5/GpH7-B3 variant K334_09D/GpL16-k0 (antibody, human IgG1, kappa)
heavy 1: not shown
heavy 2: not shown
light: B1 light
notes: copies: 1 + 1 + 2
B26: GpH7-A5/GpH7-B3 variant I336_15Y/GpL16-k0 (antibody, human IgG1, kappa)
heavy 1: not shown
heavy 2: not shown
light: B1 light
notes: copies: 1 + 1 + 2
B27: GpH7-A5/GpH7-B3 variant I332_14T/GpL16-k0 (antibody, human IgG1, kappa)
heavy 1: not shown
heavy 2: not shown
light: B1 light
notes: copies: 1 + 1 + 2
B28: GpH7-A5/GpH7-B3 variant K326_15Y/GpL16-k0 (antibody, human IgG1, kappa)
heavy 1: not shown
heavy 2: not shown
light: B1 light
notes: copies: 1 + 1 + 2
B29: GpH7-A5/GpH7-B3 variant K326_14T/GpL16-k0 (antibody, human IgG1, kappa)
heavy 1: not shown
heavy 2: not shown
light: B1 light
notes: copies: 1 + 1 + 2
B30: GpH7-A5/GpH7-B3 variant I336_16H/GpL16-k0 (antibody, human IgG1, kappa)
heavy 1: not shown
heavy 2: not shown
light: B1 light
notes: copies: 1 + 1 + 2

Molecular target: T1, FcγRIIIa (human, UniProt P08637 17-208)
T1 construct: extracellular domain; also called 3a; FcγRIIIa extracellular domain
T1 sequence (P08637 other isoform, or with tags, fused parts or gaps): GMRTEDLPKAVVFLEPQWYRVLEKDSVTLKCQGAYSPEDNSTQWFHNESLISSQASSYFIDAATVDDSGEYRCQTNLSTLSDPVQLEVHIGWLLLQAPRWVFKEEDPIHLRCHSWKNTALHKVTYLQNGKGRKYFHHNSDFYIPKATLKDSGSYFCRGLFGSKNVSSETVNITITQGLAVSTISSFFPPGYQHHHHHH
Assay: SPR (Biacore);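 note: antibody variants captured on an SPR sensor chip, with FcγRIIIa passed over as analyte in HBS-EP+ buffer at 25 °C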

| He/Con 3a | Binder |
| --- | --- |
| 95.6 % of GpH7-A5/GpH7-B3/GpL16-k0 | B1 |
| 97.1 % of GpH7-A5/GpH7-B3/GpL16-k0 | B2 |
| 186 % of GpH7-A5/GpH7-B3/GpL16-k0 | B3 |
| 146 % of GpH7-A5/GpH7-B3/GpL16-k0 | B4 |
| 114 % of GpH7-A5/GpH7-B3/GpL16-k0 | B5 |
| 125 % of GpH7-A5/GpH7-B3/GpL16-k0 | B6 |
| 103 % of GpH7-A5/GpH7-B3/GpL16-k0 | B7 |
| 153 % of GpH7-A5/GpH7-B3/GpL16-k0 | B8 |
| 106 % of GpH7-A5/GpH7-B3/GpL16-k0 | B9 |
| 140 % of GpH7-A5/GpH7-B3/GpL16-k0 | B10 |
| 116 % of GpH7-A5/GpH7-B3/GpL16-k0 | B11 |
| 132 % of GpH7-A5/GpH7-B3/GpL16-k0 | B12 |
| 88.8 % of GpH7-A5/GpH7-B3/GpL16-k0 | B13 |
| 104 % of GpH7-A5/GpH7-B3/GpL16-k0 | B14 |
| 134 % of GpH7-A5/GpH7-B3/GpL16-k0 | B15 |
| 118 % of GpH7-A5/GpH7-B3/GpL16-k0 | B16 |
| 101 % of GpH7-A5/GpH7-B3/GpL16-k0 | B17 |
| 93.7 % of GpH7-A5/GpH7-B3/GpL16-k0 | B18 |
| 145 % of GpH7-A5/GpH7-B3/GpL16-k0 | B19 |
| 114 % of GpH7-A5/GpH7-B3/GpL16-k0 | B20 |
| 94.4 % of GpH7-A5/GpH7-B3/GpL16-k0 | B21 |
| 88.4 % of GpH7-A5/GpH7-B3/GpL16-k0 | B22 |
| 150 % of GpH7-A5/GpH7-B3/GpL16-k0 | B23 |
| 138 % of GpH7-A5/GpH7-B3/GpL16-k0 | B24 |
| 164 % of GpH7-A5/GpH7-B3/GpL16-k0 | B25 |
| 83.4 % of GpH7-A5/GpH7-B3/GpL16-k0 | B26 |
| 110 % of GpH7-A5/GpH7-B3/GpL16-k0 | B27 |
| 124 % of GpH7-A5/GpH7-B3/GpL16-k0 | B28 |
| 140 % of GpH7-A5/GpH7-B3/GpL16-k0 | B29 |
| 92.8 % of GpH7-A5/GpH7-B3/GpL16-k0 | B30 |
